Results reported in patent US20230057665A1 (Eli Lilly, published 2023).

Assays:
Human IL-1β [1] = biological target: T1, Human IL-1β (human, UniProt P01584 117-269); assay: MSD-SET (solution equilibrium titration, electrochemiluminescence), 37° C., 72 h equilibrium
T1 construct: also called IL-1 beta; Interleukin-1β
Experimental: MSD (Meso Scale Discovery) electrochemiluminescence assay is utilized to measure the affinity of Antibody I, Antibody II, and Canakinumab against human IL-1β. First, the equilibrium mixture of antibodies and human IL-1β is set up; in the mixture the antibody, concentrations are kept constant at 1 pM, 10 pM, and 100 pM whereas the ligand is titrated in the concentration ranging from 0.9 nM to 0.00004 nM (2.5 times dilution between concentrations) The equilibrium mixture is set up in sealed non-binding 96-well plate at 37° C. for 72 hours.
MSD Gold Streptavidin plates are used to detect the free antibodies in the equilibrium mixture. The MSD plates are first blocked with blocking buffer (PBS+1% BSA) for 1 hour on a shaker set at 800 rpm and then washed 3 times with washing buffer PBST (PBS ±0.05% Tween 20). The plates are coated with biotinylated human IL-1p followed by 3× washing with PBST. The equilibrium mixtures are added to the coated plate, incubated at room temperature with shaking for 2.5 mins and immediately washed 3× with PBST. The goat anti-human Sulfo-TAG antibody is added to the plate and incubated at room temperature for 1 hour with shaking. After three more washes, MSD Read Buffer at 1:2 concentration diluted in MilliQ water is added to the wells. immediately afterwards, the plates are read using an MSD Sector Imager 516000 instrument.

Human IL-1β [2] = biological target: T1, Human IL-1β; assay: cell-based or functional assay
Cyno IL-1β = Cyno IL-1β (cyno, UniProt P79182 117-268); assay: cell-based or functional assay

Kd (Human IL-1β [1]): 0.0131 nM
Human IL-1β Inhibition IC50 (HEK-Blue IL-1β reporter cells, 4 pM IL-1β) (Human IL-1β [2]): 29.2 pM
Cyno IL-1β Inhibition IC50 (HEK-Blue IL-1β reporter cells, 4 pM IL-1β) (Cyno IL-1β): > 10000 pM
B1: Canakinumab (antibody, human IgG4 S228P, kappa, F234A L235A, V domains shown)
VH: QVQLVESGGGVVQPGRSLRLSCAASGFTFSVYGMNWVRQAPGKGLEWVAIIWYDGDNQYYADSVKGRFTISRDNSKNTLYLQMNGLRAEDTAVYYCARDLRTGPFDYWGQGTLVTVSS
VL: EIVLTQSPDFQSVTPKEKVTITCRASQSIGSSLHWYQQKPDQSPKLLIKYASQSFSGVPSRFSGSGSGTDFTLTINSLEAEDAAAYYCHQSSSLPFTFGPGTKVDIKR
